Experiments:
Human EpCAM on cells = target: T1, Human EpCAM on cells (human, UniProt P16422 24-314); test: cell-based or functional assay
T1 sequence: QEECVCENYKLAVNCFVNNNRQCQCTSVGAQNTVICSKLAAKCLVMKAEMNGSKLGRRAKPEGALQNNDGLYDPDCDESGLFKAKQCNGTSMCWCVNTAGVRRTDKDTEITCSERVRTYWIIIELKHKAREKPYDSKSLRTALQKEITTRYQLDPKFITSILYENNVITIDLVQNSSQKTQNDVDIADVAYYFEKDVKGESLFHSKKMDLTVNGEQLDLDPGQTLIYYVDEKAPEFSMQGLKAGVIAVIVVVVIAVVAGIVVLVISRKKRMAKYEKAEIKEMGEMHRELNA

[1] = target: T2, human FAP/seprase protein (Sino Biological Inc, 10464-H07H-10) (human, UniProt Q12884 26-760); test: ELISA on plate-coated human FAP/seprase (100 ng/well), anti-His detection, A450
T2 construct: also called recombinant FAP protein; FAP protein

[2] = target: T3, human EpCAM/TROP-1 protein (Sino Biological Inc, #10694-H02H-50) (human, UniProt P16422 24-265); test: ELISA on plate-coated human EpCAM/TROP-1 (50 ng/well), anti-His detection, A450
T3 construct: also called recombinant EpCAM protein; recombinant EpCAM
T3 sequence (looked up): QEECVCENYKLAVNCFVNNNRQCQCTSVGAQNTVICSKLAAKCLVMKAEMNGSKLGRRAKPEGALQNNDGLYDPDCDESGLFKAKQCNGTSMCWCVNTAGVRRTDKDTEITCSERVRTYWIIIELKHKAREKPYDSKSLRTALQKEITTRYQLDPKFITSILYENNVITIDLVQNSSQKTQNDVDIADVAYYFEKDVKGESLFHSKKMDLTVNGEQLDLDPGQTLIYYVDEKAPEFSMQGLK

[3] = target: Human FAP (fibroblast activation protein) on cells (human, UniProt Q12884 1-760); test: cell-based or functional assay

B1: EpCAM bispecific T-cell activator (anti-EpCAM scFv x anti-CD3 scFv, with N-terminal signal sequence and C-terminal deca-His affinity tag) (bispecific antibody)
chain: ELVMTQSPSSLTVTAGEKVTMSCKSSQSLLNSGNQKNYLTWYQQKPGQPPKLLIYWASTRESGVPDRFTGSGSGTDFTLTISSVQAEDLAVYYCQNDYSYPLTFGAGTKLEIKGGGGSGGGGSGGGGSEVQLLEQSGAELVRPGTSVKISCKASGYAFTNYWLGWVKQRPGHGLEWIGDIFPGSGNIHYNEKFKGKATLTADKSSSTAYMQLSSLTFEDSAVYFCARLRNWDEPMDYWGQGTTVTVSSGGGGSDVQLVQSGAEVKKPGASVKVSCKASGYTFTRYTMHWVRQAPGQGLEWIGYINPSRGYTNYADSVKGRFTITTDKSTSTAYMELSSLRSEDTATYYCARYYDDHYCLDYWGQGTTVTVSSGEGTSTGSGGSGGSGGADDIVLTQSPATLSLSPGERATLSCRASQSVSYMNWYQQKPGKAPKRWIYDTSKVASGVPARFSGSGSGTDYSLTINSLEAEDAATYYCQQWSSNPLTFGGGTKVEIKHHHHHHHHHH
Human EpCAM on cells
  EC50 of T cell-mediated lysis of DLD cells (LDH assay, 24 h, 8,000 DLD with 40,000 T-cells): 7.4 ng/mL

B2: Control (Anti-FHA) bispecific T-cell activator (anti-FHA scFv x anti-CD3 scFv, with N-terminal signal sequence and C-terminal deca-His affinity tag) (bispecific antibody)
chain: ELDIVMTQAPASLAVSLGQRATISCRASKSVSSSGYNYLHWYQQKPGQPPKLLIYLASNLESGVPARFSGSGSGTDFTLNIHPVEEEDAATYYCQHSREFPLTFGAGTKLEIKSSGGGGSGGGGGGSSRSSLEVQLQQSGPELVKPGASVKISCKTSGYTFTGYTMHWVRQSHGKSLEWIGGINPKNGGIIYNQKFQGKATLTVDKSSSTASMELRSLTSDDSAVYYCARRVYDDYPYYYAMDYWGQGTSVTVSSAKTTPPSVTSGGGGSDVQLVQSGAEVKKPGASVKVSCKASGYTFTRYTMHWVRQAPGQGLEWIGYINPSRGYTNYADSVKGRFTITTDKSTSTAYMELSSLRSEDTATYYCARYYDDHYCLDYWGQGTTVTVSSGEGTSTGSGGSGGSGGADDIVLTQSPATLSLSPGERATLSCRASQSVSYMNWYQQKPGKAPKRWIYDTSKVASGVPARFSGSGSGTDYSLTINSLEAEDAATYYCQQWSSNPLTFGGGTKVEIKHHHHHHHHHH
[1]
  binding result: no binding (tested: supernatant protein diluted 10-fold)
[2]
  binding result: no binding (tested: supernatant protein diluted 10-fold)

B3: FAP bispecific T-cell activator (anti-FAP scFv x anti-CD3 scFv, with N-terminal signal sequence and C-terminal deca-His affinity tag) (bispecific antibody)
chain: DIVMTQSPDSLAVSLGERATINCKSSQSLLYSRNQKNYLAWYQQKPGQPPKLLIFWASTRESGVPDRFSGSGFGTDFTLTISSLQAEDVAVYYCQQYFSYPLTFGQGTKVEIKGGGGSGGGGSGGGGSQVQLVQSGAEVKKPGASVKVSCKTSRYTFTEYTIHWVRQAPGQRLEWIGGINPNNGIPNYNQKFKGRVTITVDTSASTAYMELSSLRSEDTAVYYCARRRIAYGYDEGHAMDYWGQGTLVTVSSGGGGSDVQLVQSGAEVKKPGASVKVSCKASGYTFTRYTMHWVRQAPGQGLEWIGYINPSRGYTNYADSVKGRFTITTDKSTSTAYMELSSLRSEDTATYYCARYYDDHYCLDYWGQGTTVTVSSGEGTSTGSGGSGGSGGADDIVLTQSPATLSLSPGERATLSCRASQSVSYMNWYQQKPGKAPKRWIYDTSKVASGVPARFSGSGSGTDYSLTINSLEAEDAATYYCQQWSSNPLTFGGGTKVEIKHHHHHHHHHH
[3]
  EC50 of T cell-mediated lysis of NHDF cells (LDH assay, 24 h, 8,000 NHDF with 40,000 T-cells): 3.2 ng/mL
  EC50 of fibroblast (NHDF) lysis by LDH release after 24 h co-culture with PBMC T-cells: ~2.5 ng/mL

From patent publication US20250026851A1 (AKAMIS BIO, published 2025)
